According to patent US20180334702A1 (SYSMEX, published 2018):
Where two headings read alike, the source gives them in different places. No end group written: not given here. *: point of attachment. aminohexane = linker joining biotin to the N-terminal residue; Biotin = O=C1N[C@H]2[C@H](CS[C@H]2CCCCC(=O)*)N1

What was measured:
Experiment in all cases: cell-based or functional assay
CDK1/cyclin A2 [1] = target: T1, CDK1/cyclin A2 (UniProt P06493 1-297; P20248 1-432, limits assumed)
CDK4/cyclin D3 [2] = target: T2, CDK4/cyclin D3 (UniProt P11802 1-303; P30281 1-292)
T2 sequence (P11802 whole entry, chain 1 of 2): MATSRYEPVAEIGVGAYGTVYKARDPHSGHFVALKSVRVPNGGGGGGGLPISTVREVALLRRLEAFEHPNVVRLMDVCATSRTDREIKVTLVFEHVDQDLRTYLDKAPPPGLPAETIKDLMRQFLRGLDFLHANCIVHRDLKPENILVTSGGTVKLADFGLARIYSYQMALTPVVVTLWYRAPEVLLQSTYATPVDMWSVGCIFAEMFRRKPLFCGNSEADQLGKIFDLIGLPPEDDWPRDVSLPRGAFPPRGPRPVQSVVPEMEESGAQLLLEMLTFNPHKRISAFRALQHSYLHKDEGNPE
T2 sequence (P30281 whole entry, chain 2 of 2): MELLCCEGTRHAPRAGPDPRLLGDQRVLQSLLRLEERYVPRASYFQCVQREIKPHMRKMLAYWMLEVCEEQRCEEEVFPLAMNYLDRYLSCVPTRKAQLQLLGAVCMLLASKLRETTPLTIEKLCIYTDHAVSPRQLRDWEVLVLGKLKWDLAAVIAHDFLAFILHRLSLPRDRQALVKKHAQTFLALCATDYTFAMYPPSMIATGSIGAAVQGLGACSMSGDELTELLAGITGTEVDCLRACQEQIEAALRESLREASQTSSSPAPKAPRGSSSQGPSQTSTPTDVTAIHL

CDK6/cyclin D3 [3] = target: T3, CDK6/cyclin D3 (UniProt Q00534 1-326; P30281 1-292)
T3 sequence (Q00534 whole entry, chain 1 of 2): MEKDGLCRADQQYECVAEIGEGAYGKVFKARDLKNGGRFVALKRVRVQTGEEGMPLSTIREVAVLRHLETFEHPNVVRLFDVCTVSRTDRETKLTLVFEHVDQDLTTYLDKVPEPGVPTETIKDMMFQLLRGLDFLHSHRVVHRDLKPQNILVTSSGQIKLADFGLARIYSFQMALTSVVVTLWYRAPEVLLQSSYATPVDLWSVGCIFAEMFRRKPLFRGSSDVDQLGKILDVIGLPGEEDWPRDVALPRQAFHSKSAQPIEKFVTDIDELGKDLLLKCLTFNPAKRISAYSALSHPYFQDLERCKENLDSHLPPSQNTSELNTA
T3 sequence (P30281 whole entry, chain 2 of 2): as the sequence (P30281 whole entry, chain 2 of 2) above

CDK2/cyclin E1 [4] = target: T4, CDK2/cyclin E1 (UniProt P24941 1-298; P24864 1-410)
CDK1/cyclin A2 [5] = target: T1, CDK1/cyclin A2; remark: listed apart in the source
CDK4/cyclin D3 [6] = target: T2, CDK4/cyclin D3; remark: listed apart in the source
CDK2/cyclin E1 [7] = target: T4, CDK2/cyclin E1; remark: listed apart in the source
CDK6/cyclin D3 [8] = target: T3, CDK6/cyclin D3; remark: listed apart in the source
CDK2/cyclin E1 [9] = target: T4, CDK2/cyclin E1; remark: listed apart in the source
CDK1/cyclin A2 [10] = target: T1, CDK1/cyclin A2; remark: listed apart in the source
CDK4/cyclin D3 [11] = target: T2, CDK4/cyclin D3; remark: listed apart in the source
CDK6/cyclin D3 [12] = target: T3, CDK6/cyclin D3; remark: listed apart in the source
CDK2/cyclin E1 [13] = target: T4, CDK2/cyclin E1; remark: listed apart in the source
CDK1/cyclin A2 [14] = target: T1, CDK1/cyclin A2; remark: listed apart in the source
CDK4/cyclin D3 [15] = target: T2, CDK4/cyclin D3; remark: listed apart in the source
CDK2/cyclin E1 [16] = target: T4, CDK2/cyclin E1; remark: listed apart in the source
CDK1/cyclin A2 [17] = target: T1, CDK1/cyclin A2; remark: listed apart in the source
CDK4/cyclin D3 [18] = target: T2, CDK4/cyclin D3; remark: listed apart in the source

T1 sequence (P06493 whole entry, chain 1 of 2): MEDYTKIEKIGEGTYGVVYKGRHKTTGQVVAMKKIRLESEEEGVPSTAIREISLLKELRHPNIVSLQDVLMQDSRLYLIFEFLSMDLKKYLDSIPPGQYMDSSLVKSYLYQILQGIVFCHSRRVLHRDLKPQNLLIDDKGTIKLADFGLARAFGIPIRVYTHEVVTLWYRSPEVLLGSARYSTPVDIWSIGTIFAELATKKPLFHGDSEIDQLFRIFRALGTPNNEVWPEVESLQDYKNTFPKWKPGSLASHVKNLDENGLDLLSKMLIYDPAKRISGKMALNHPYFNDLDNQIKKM
T1 sequence (P20248 whole entry, chain 2 of 2): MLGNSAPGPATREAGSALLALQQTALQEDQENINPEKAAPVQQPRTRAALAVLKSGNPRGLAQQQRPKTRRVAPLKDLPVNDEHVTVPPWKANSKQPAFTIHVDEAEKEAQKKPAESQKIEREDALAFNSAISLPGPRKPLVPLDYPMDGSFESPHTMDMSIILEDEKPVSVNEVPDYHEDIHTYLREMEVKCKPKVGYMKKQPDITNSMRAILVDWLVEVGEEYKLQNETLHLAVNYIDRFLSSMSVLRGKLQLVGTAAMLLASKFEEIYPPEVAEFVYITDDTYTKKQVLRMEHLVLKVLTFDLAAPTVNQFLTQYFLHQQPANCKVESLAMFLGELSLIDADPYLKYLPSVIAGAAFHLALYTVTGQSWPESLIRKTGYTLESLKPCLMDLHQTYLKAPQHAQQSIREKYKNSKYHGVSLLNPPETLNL

## {Biotin-aminohexane}-RRRFRPASPLDGPPD [Polypeptide 18]
CDK1/cyclin A2 [1]
  relative luminescence intensity (CDK6 = 100%): 22%
CDK4/cyclin D3 [2]
  relative luminescence intensity (CDK6 = 100%): 14%

## {Biotin-aminohexane}-GAPWSPNPWWRGGGG [Polypeptide 3]
CDK6/cyclin D3 [3]
  relative reactivity (Polypeptide 3 = 100%): 100%
CDK2/cyclin E1 [4]
  relative reactivity (Polypeptide 3 = 100%): 100%
CDK1/cyclin A2 [5]
  relative reactivity (Polypeptide 3 = 100%): 100%
CDK4/cyclin D3 [6]
  relative reactivity (Polypeptide 3 = 100%): 100%

## {Biotin-aminohexane}-GGGRAAPLSPDPHIPD [Polypeptide 24]
CDK2/cyclin E1 [7]
  relative luminescence intensity (CDK6 = 100%): 54%
CDK4/cyclin D3 [2]
  relative luminescence intensity (CDK6 = 100%): 54%

## {Biotin-aminohexane}-GAPWSPDPWDDGGGG [Polypeptide 28]
CDK6/cyclin D3 [3]
  relative reactivity (Polypeptide 3 = 100%): 25%
CDK2/cyclin E1 [4]
  relative reactivity (Polypeptide 3 = 100%): 13%
CDK1/cyclin A2 [5]
  relative reactivity (Polypeptide 3 = 100%): 4%
CDK4/cyclin D3 [6]
  relative reactivity (Polypeptide 3 = 100%): 50%

## {Biotin-aminohexane}-LVEMTGLSPRDIRVD [Polypeptide 26]
CDK1/cyclin A2 [1]
  relative luminescence intensity (CDK6 = 100%): 295%
CDK4/cyclin D3 [2]
  relative luminescence intensity (CDK6 = 100%): 18%

## {Biotin-aminohexane}-GGGKAPLTPKKAK [Comparative Polypeptide 5]
CDK2/cyclin E1 [7]
  relative luminescence intensity (CDK6 = 100%): 156%
CDK1/cyclin A2 [1]
  relative luminescence intensity (CDK6 = 100%): 143%
CDK4/cyclin D3 [2]
  relative luminescence intensity (CDK6 = 100%): 56%

## {Biotin-aminohexane}-GGGRAAPLSPIPHIPR [Comparative Polypeptide 6]
CDK2/cyclin E1 [7]
  relative luminescence intensity (CDK6 = 100%): 44%
CDK1/cyclin A2 [1]
  relative luminescence intensity (CDK6 = 100%): 119%
CDK4/cyclin D3 [2]
  relative luminescence intensity (CDK6 = 100%): 190%

## {Biotin-aminohexane}-PYKISEGLPTPTKMTPRSRI [Comparative Polypeptide 1]
CDK6/cyclin D3 [8]
  relative value of the luminescence intensity (Comparative Polypeptide 2 = 1.00): 0.43 relative value
CDK2/cyclin E1 [9]
  relative value of the luminescence intensity (Comparative Polypeptide 2 = 1.00): 6.44 relative value
CDK1/cyclin A2 [10]
  relative value of the luminescence intensity (Comparative Polypeptide 2 = 1.00): 1.63 relative value
CDK4/cyclin D3 [11]
  relative value of the luminescence intensity (Comparative Polypeptide 2 = 1.00): 0.15 relative value
CDK6/cyclin D3 [12]
  Luminescence intensity: 7.42e+06
CDK2/cyclin E1 [13]
  Luminescence intensity: 1.04e+08
CDK1/cyclin A2 [14]
  Luminescence intensity: 6.76e+07
CDK4/cyclin D3 [15]
  Luminescence intensity: 811000

## {Biotin-aminohexane}-PYKISEGLPTPAKMAPRSRI-NH2 [Comparative Polypeptide 4]
CDK2/cyclin E1 [16]
  relative luminescence intensity (CDK6 = 100%): 2680%
CDK1/cyclin A2 [17]
  relative luminescence intensity (CDK6 = 100%): 3250%

## {Biotin-aminohexane}-GGGKAPLTPLDAD [Polypeptide 23]
CDK4/cyclin D3 [2]
  relative luminescence intensity (CDK6 = 100%): 37%

## {Biotin-aminohexane}-LVEMTGLSPRVIRVW [Comparative Polypeptide 7]
CDK2/cyclin E1 [7]
  relative luminescence intensity (CDK6 = 100%): 10%
CDK1/cyclin A2 [1]
  relative luminescence intensity (CDK6 = 100%): 1150%
CDK4/cyclin D3 [2]
  relative luminescence intensity (CDK6 = 100%): 55%

## {Biotin-aminohexane}-GGGKAPLTPKDAD [Polypeptide 22]
CDK2/cyclin E1 [7]
  relative luminescence intensity (CDK6 = 100%): 15%
CDK1/cyclin A2 [1]
  relative luminescence intensity (CDK6 = 100%): 27%
CDK4/cyclin D3 [2]
  relative luminescence intensity (CDK6 = 100%): 46%

## {Biotin-aminohexane}-GGGRAAPLSPIDHIPD [Polypeptide 25]
CDK2/cyclin E1 [7]
  relative luminescence intensity (CDK6 = 100%): 62%
CDK4/cyclin D3 [2]
  relative luminescence intensity (CDK6 = 100%): 40%

## {Biotin-aminohexane}-GAPWSPNDWWDGGGG [Polypeptide 27]
CDK6/cyclin D3 [3]
  relative reactivity (Polypeptide 3 = 100%): 33%
CDK2/cyclin E1 [4]
  relative reactivity (Polypeptide 3 = 100%): 20%
CDK1/cyclin A2 [5]
  relative reactivity (Polypeptide 3 = 100%): 13%
CDK4/cyclin D3 [6]
  relative reactivity (Polypeptide 3 = 100%): 37%

## {Biotin-aminohexane}-PYKISEGLPTPTKMTPRSRI-NH2 [Comparative Polypeptide 3]
CDK2/cyclin E1 [16]
  relative luminescence intensity (CDK6 = 100%): 766%
CDK1/cyclin A2 [17]
  relative luminescence intensity (CDK6 = 100%): 678%
CDK4/cyclin D3 [18]
  relative luminescence intensity (CDK6 = 100%): 7%

## {Biotin-aminohexane}-GMPWSPNPWWRGGGG [Polypeptide 1]
CDK6/cyclin D3 [8]
  relative value of the luminescence intensity (Comparative Polypeptide 2 = 1.00): 7.06 relative value
CDK2/cyclin E1 [9]
  relative value of the luminescence intensity (Comparative Polypeptide 2 = 1.00): 6.12 relative value
CDK1/cyclin A2 [10]
  relative value of the luminescence intensity (Comparative Polypeptide 2 = 1.00): 2.24 relative value
CDK4/cyclin D3 [11]
  relative value of the luminescence intensity (Comparative Polypeptide 2 = 1.00): 18.6 relative value
CDK6/cyclin D3 [12]
  Luminescence intensity: 1.22e+08
CDK2/cyclin E1 [13]
  Luminescence intensity: 9.92e+07
CDK1/cyclin A2 [14]
  Luminescence intensity: 9.32e+07
CDK4/cyclin D3 [15]
  Luminescence intensity: 1.01e+08

## {Biotin-aminohexane}-RRRFRPASPLRGPPK [Comparative Polypeptide 2]
CDK6/cyclin D3 [8]
  relative value of the luminescence intensity (Comparative Polypeptide 2 = 1.00): 1 relative value
CDK2/cyclin E1 [9]
  relative value of the luminescence intensity (Comparative Polypeptide 2 = 1.00): 1 relative value
CDK1/cyclin A2 [10]
  relative value of the luminescence intensity (Comparative Polypeptide 2 = 1.00): 1 relative value
CDK4/cyclin D3 [11]
  relative value of the luminescence intensity (Comparative Polypeptide 2 = 1.00): 1 relative value
CDK2/cyclin E1 [7]
  relative luminescence intensity (CDK6 = 100%): 321%
CDK1/cyclin A2 [1]
  relative luminescence intensity (CDK6 = 100%): 318%
CDK4/cyclin D3 [2]
  relative luminescence intensity (CDK6 = 100%): 245%
CDK6/cyclin D3 [12]
  Luminescence intensity: 1.73e+07
CDK2/cyclin E1 [13]
  Luminescence intensity: 1.62e+07
CDK1/cyclin A2 [14]
  Luminescence intensity: 4.15e+07
CDK4/cyclin D3 [15]
  Luminescence intensity: 5.44e+06
CDK2/cyclin E1 [16]
  relative luminescence intensity (CDK6 = 100%): 198%
CDK1/cyclin A2 [17]
  relative luminescence intensity (CDK6 = 100%): 606%
CDK4/cyclin D3 [18]
  relative luminescence intensity (CDK6 = 100%): 51%
